Laboratory results taken from patent US12129308B2, “MMP13 binding immunoglobulins” (Merck Patent GmbH, priority 2017, dated 2024).
Changes are numbered by the printed parent chain. Names may count otherwise. Blank lines part the entries; values can stand above or below the molecule they belong to.

What was measured:
[1] = analytical size exclusion chromatography (aSEC); type: physicochemical; settings: main peak
Description: Analytical SEC experiments were performed on an Ultimate 3000 machine (Dionex) in combination with a Biosep-SEC-3 (Agilent) column.
The tendency for multimerisation and aggregation of a selected panel of 5 representative anti-MMP13 Nanobodies was investigated by analytical size exclusion chromatography (aSEC).

[2] = SDS-Page; type: physicochemical
[3] = thermal shift assay (TSA); type: physicochemical; settings: for Tm at pH 7: pH 7, monovalent Nanobodies; for TSA Tm (° C.)@ pH 7: C0101517A01 2nd round sequence optimization variants
Description: TSA was carried out with 5 μl of purified monovalent Nanobodies in essence according to Ericsson et al. (2006 Anals of Biochemistry, 357: 289-298).
The thermal stability of the wildtype anti-MMP13 Nanobodies was investigated in a thermal shift assay (TSA).

[4] = molecular target: T1, MMP13 (Homo sapiens, UniProt P45452); assay: human MMP13 fluorogenic peptide assay; type: biochemical
Description: (§1) The setup of human, cynomolgus, rat, dog and bovine MMP13 fluorogenic peptide assays, as well as human MMP1 and MMP14 fluorogenic peptide assays is in brief as follows: activated MMP was incubated with fluorogenic peptide substrate Mca-PLGL-Dpa-AR-NH2 (R&D Systems #ES001) and a ⅕ dilution of periplasmic extract or a dilution series of purified Nanobody/positive control (total volume=20 μl in assay buffer 50 mM Tris pH 7.5, 100 mM NaCl, 10 mM CaCl2, 0.01% Tween20), for 2 h at 37° C.
(§2) The potency/efficacy of the Nanobodies was tested in the fluorogenic peptide assay, set up for different MMP13 orthologues and in the human collagenolytic assay (both assays were also used during screening, see Example 6.3). In addition, a second collagen-based assay (fluorogenic collagen assay) using higher Collagen concentrations in comparison with the collagenolytic assay was established to simulate the high Collagen concentration conditions in cartilage in which the MMP13 inhibitor is expected to be active. In this assay the fluorescence of the intact FITC-labelled Collagen substrate is low due to the reciprocal quenching effect of the fluorophores. Upon cleavage, quenching is lost and fluorescence increases.

[5] = molecular target: human full-length MMP13 (Homo sapiens, UniProt P45452); assay: competition ELISA against biotinylated 40E09 (epitope binning); type: binding; settings: 0.6 nM biotinylated 40E09
Description: FIG. 3: Competition ELISA with 0.6 nM biotinylated 40E09 against a panel of profile 1 and profile 2 Nanobodies on human full-length MMP13, coated via mouse anti-human MMP13 mAb (R&D Systems #MAB511). MMP13 was activated via incubation with APMA for 90 min at 37° C.
For epitope-binning a panel of monovalent Nanobodies derived from profile 1 and profile 2 were tested in a competition ELISA against the purified Nanobody 40E09 (profile 1).

[6] = molecular target: T2, activated MMP13 (Homo sapiens, UniProt P45452); assay: human fluorogenic collagen assay (DQ Collagen type I); type: biochemical; settings: Table 6.5
Description: In brief, the setup of this assay is as follows: 100 μg/ml DQ™ Collagen, type I from Bovine skin (fluorescein conjugate; Molecular Probes #D-12060 lot 1149062) was incubated with 10 nM activated MMP13 and a dilution series of purified Nanobody/positive control, for 2 h at 37° C. in 40 μl assay buffer (50 mM Tris-Cl pH 7.5, 100 mM NaCl, 10 mM CaCl2, 0.01% Tween-20).
as §2
In FIG. 1 the dose response curves for inhibition of activated human MMP13 when using high concentrations of bovine Collagen I (fluorogenic Collagen assay) are depicted.

[7] = molecular target: T2, activated MMP13; assay: human collagenolytic assay (human Collagen II); type: biochemical; settings: low Collagen concentration conditions
Description: The setup of this assay is in brief as follows: 250 ng/ml immunization grade human Collagen II (Chondrex #20052) was incubated with 5 nM activated MMP13 in 100 μl assay buffer (50 mM Tris-Cl pH 7.5, 100 mM NaCl, 10 mM CaCl2, 0.01% Tween-20). After 1.5 h incubation at 35° C., the reaction was neutralized with EDTA (10 μl of 30 mM stock). […] Remaining intact Collagen was detected via ELISA (reagents provided in Type II Collagen Detection kit (Chondrex #6009)).

[8] = molecular target: rat MMP13 (Rattus norvegicus, UniProt P23097); assay: adapted (more sensitive) rat fluorogenic peptide assay; type: biochemical; settings: 0.15 nM MMP13 instead of 1.33 nM
Description: as §1
As best species cross-reactive binder (cf. Example 6.4.2) Nanobody 40E09 was selected as representative of profile 1 Nanobodies. For profile 2, three Nanobodies were selected: 516G08, 62C02 and 517A01. Profile 1 and profile 2 Nanobodies were combined in a bivalent format with a 35GS linker (see Table 6.5; Nb(A)-35GS-Nb(B)). The bivalent Nanobodies were cloned into pAX205, transformed into P. pastoris, expressed and purified according to standard procedures. […] Bivalent constructs were tested in this adapted fluorogenic peptide assay as well as in the human fluorogenic collagen assay.

[9] = temperature stress; type: physicochemical; settings: forced oxidation and temperature stress conditions
Description: Nanobody samples (1-2 mg/ml) were stored in PBS for four weeks at −20° C. (negative control) 25 and 40° C. After this incubation period, Nanobodies were digested with Trypsin or LysC. Peptides of stressed and control samples were then analyzed by means of RPC on a Series 1290 machine (Agilent Technologies) over an Acquity UPLC BEH300-C18 column (Agilent Technologies) at 60° C. coupled to a Q-TOF mass spectrometer (6530 Accurate Mass Q-TOF (Agilent))
(§3) In order to assess potential PTM, forced oxidation and temperature stress was applied on the lead panel.

[10] = molecular target: T1, MMP13; assay: fluorogenic peptide assay for sequence optimization variants and NNK libraries (species not stated); type: biochemical; settings: C0101517A01 2nd round sequence optimization variants
Description: as §1
However, the degree of isomerization and oxidation differed at the assessed conditions and were just below or above the applied threshold in each case. Eventually, amino acid residues 54-55, 100d-100e, M100j and 101-102 were identified as the residues responsible for the PTM. […] In order to attempt accommodating the different requirements, […] were constructed in which these residues were mutated, and subsequently screened in the fluorogenic peptide assay to evaluate possible potency losses as well as screened for biophysical properties (Tm).
Eventually, amino acid residues N100b and N101 were identified as residues sensitive to deamidation via temperature stress experiments. However, these residues are located in the CDR3 region, and potentially involved in target binding. Thus, knocking out the deamidation sites could have an impact on binding.

[11] = forced oxidation; type: physicochemical; settings: forced oxidation and temperature stress conditions
Description: Nanobody samples (1 mg/ml) were subjected for four hours at RT and in the dark to 10 mM H2O2 in PBS, in parallel with control samples without H2O2, followed by buffer switch to PBS using Zeba desalting spin columns (0.5 ml) (Thermo Scientific). Stressed and control samples were then analyzed by means of RPC on a Series 1200 or 1290 machine (Agilent Technologies) over a Zorbax 300SB-C3 column (Agilent Technologies) at 70° C. Oxidation of Nanobodies was quantified by determination of % peak area of pre-peaks occurring as a result of oxidative stress, compared to the main protein peak.
as §3

B1: 529C12: anti-MMP13 Nanobody, profile 2, SEQ ID NO: 9 (protein)
VHH: DVQLVESGGGLVQPGGSLRLSCVASGSIFSINAMGWYRQAPGKQRELVAAISSGGSTYYADSVKGRFTISRDNSKNTVYLQMNSLRPEDTAVYYCNAAVDASRGLPYELYYYWGQGTLVTVSS
relative area [1]: 100%
SDS-Page results [2]: 1 band
Tm at pH 7 [3]: 82.7 °C

B2: 516G08: anti-MMP13 Nanobody, profile 2, SEQ ID NO: 13 (protein)
VHH: DVQLVESGGGLVQPGGSLRLSCAGSGSIFRINVMAWYRQAPGKQRELVAAITSGGTTNYADSVKGRFTISRDNSKNTVYLQMNSLRPEDTAVYYCYADIGWPYVLDYDFWGQGTLVTVSS
Tm at pH 7 [3]: 65.2 °C

inhibition in the fluorogenic peptide assay (screening) [4]: incomplete inhibition
competition with 40E09 in competition ELISA [5]: compete with 40E09
IC50 human fluorogenic collagen assay [6]: partial
efficacy / inhibition in the collagenolytic assay [7]: positive
IC50 (adapted) rat fluorogenic peptide assay [8]: neutral
B3: 40E09: anti-MMP13 Nanobody, profile 1, SEQ ID NO: 1 (protein)
VHH: EVQLVESGGGSVQAGGSLRLSCAASGSTFSRYSMNWYRQAPGKQREFVAGISVGRITNYAVSVRGRFTISRDNAEGTGYLQMNSLKPEDTAVYYCNAGGLQGYWGLGTQVTVSS
relative area [1]: 100%
SDS-Page results [2]: 1 band
Tm at pH 7 [3]: 68.6 °C

B4: 517A01: anti-MMP13 Nanobody, profile 2, SEQ ID NO: 10; C010100087 is the parental of Table 6.7.1D (protein)
VHH: DVQLVESGGGLVQPGGSLRLSCAASGRTFSSYAMGWFRQAPGKEREFVAAISWSGGSTYYADSVKGRFTISRDNSKNTVYLQMNSLRPEDTAVYYCTAALAVYGPNRYRYGPVGEYNYWGQGTLVTVSS
deamidation [9]: prone to deamidation
relative area [1]: 100%
SDS-Page results [2]: 1 band
Tm at pH 7 [3]: 77.8 °C
TSA Tm (° C.)@ pH 7 [3]: 78 °C

IC50 [10]: 2.8 nM
B5: C010100648: C0101517A01 sequence optimization variant, mutations N100bQ, N101Q (protein)
VHH: B4 VHH with N106Q, N117Q
TSA Tm (° C.)@ pH 7 [3]: 81 °C

IC50 [10]: 2 nM
B6: C010100649: C0101517A01 sequence optimization variant, mutations N100bS, N101Q (protein)
VHH: B4 VHH with N106S, N117Q
TSA Tm (° C.)@ pH 7 [3]: 79 °C

IC50 [10]: 2.1 nM
B7: C010100650: C0101517A01 sequence optimization variant, mutations N100bS, N101V (protein)
VHH: B4 VHH with N106S, N117V
TSA Tm (° C.)@ pH 7 [3]: 81 °C

IC50 [10]: 2.1 nM
B8: C010100647: C0101517A01 sequence optimization variant, mutations N100bQ, N101V (protein)
VHH: B4 VHH with N106Q, N117V
TSA Tm (° C.)@ pH 7 [3]: 81 °C

B9: 62C02: anti-MMP13 Nanobody, profile 2, SEQ ID NO: 11 (protein)
VHH: EVQLVESGGALVRPGGSLRLSCAASGFAFSAAYMSWVRQAPGRGLEWVSSISDDGSKTYYADSVKGRFTISRDNAKNTVYLQMNNLKPDDTAVYYCNTGYGATTTRPGRYWGQGTQVTVSS
relative area [1]: 100%
Tm at pH 7 [3]: 76.4 °C

B10: 80A01: anti-MMP13 Nanobody, profile 2, SEQ ID NO: 12 (protein)
VHH: EVQLVESGGGLVQPGGSLRLSCAASGFTLAYYSIGWFRQAPGKEREGVSCISSGIDGSTYYADSVKGRFTISRDNAKNTMYLQMNNLKPEDTGVYYCAADPSHYYSEYDCGYYGMDYWGKGTLVTVSS
Asp-isomerization [9]: prone to Asp-isomerization
relative area [1]: 95%
Tm at pH 7 [3]: 68.6 °C
Met-oxidation [11]: prone
